According to PMC2064205 (The Journal of Cell Biology, 2007):

Experiments:
HA3-San = target: T1, HA3-San (human, UniProt Q9GZZ1 1-169); assay: co-IP
T1 sequence: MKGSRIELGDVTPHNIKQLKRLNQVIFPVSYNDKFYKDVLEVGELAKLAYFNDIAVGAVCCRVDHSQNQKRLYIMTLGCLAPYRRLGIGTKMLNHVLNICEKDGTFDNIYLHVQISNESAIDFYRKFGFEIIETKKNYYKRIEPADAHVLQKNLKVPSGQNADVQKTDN

HA3-Ard1 = target: T2, HA3-Ard1 (human, UniProt P41227 1-235); assay: co-IP
T2 sequence: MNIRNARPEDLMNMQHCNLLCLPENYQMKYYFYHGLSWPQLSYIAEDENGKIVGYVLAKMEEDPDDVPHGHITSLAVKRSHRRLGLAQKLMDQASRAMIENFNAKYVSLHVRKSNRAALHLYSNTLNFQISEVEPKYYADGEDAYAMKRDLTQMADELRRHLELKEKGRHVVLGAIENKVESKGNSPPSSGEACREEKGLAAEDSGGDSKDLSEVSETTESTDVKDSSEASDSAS

B1: Ard1 (endogenous) (natural protein)
chain: MNIRNARPEDLMNMQHCNLLCLPENYQMKYYFYHGLSWPQLSYIAEDENGKIVGYVLAKMEEDPDDVPHGHITSLAVKRSHRRLGLAQKLMDQASRAMIENFNAKYVSLHVRKSNRAALHLYSNTLNFQISEVEPKYYADGEDAYAMKRDLTQMADELRRHLELKEKGRHVVLGAIENKVESKGNSPPSSGEACREEKGLAAEDSGGDSKDLSEVSETTESTDVKDSSEASDSAS
In the case of B1, the “percent of input pulled down” value (HA3-San) is reported as > 10 % of input.

B2: NatH (endogenous) (natural protein)
chain: MPAVSLPPKENALFKRILRCYEHKQYRNGLKFCKQILSNPKFAEHGETLAMKGLTLNCLGKKEEAYELVRRGLRNDLKSHVCWHVYGLLQRSDKKYDEAIKCYRNALKWDKDNLQILRDLSLLQIQMRDLEGYRETRYQLLQLRPAQRASWIGYAIAYHLLEDYEMAAKILEEFRKTQQTSPDKVDYEYSELLLYQNQVLREAGLYREALEHLCTYEKQICDKLAVEETKGELLLQLCRLEDAADVYRGLQERNPENWAYYKGLEKALKPANMLERLKIYEEAWTKYPRGLVPRRLPLNFLSGEKFKECLDKFLRMNFSKGCPPVFNTLRSLYKDKEKVAIIEELVVGYETSLKSCRLFNPNDDGKEEPPTTLLWVQYYLAQHYDKIGQPSIALEYINTAIESTPTLIELFLVKAKIYKHAGNIKEAARWMDEAQALDTADRFINSKCAKYMLKANLIKEAEEMCSKFTREGTSAVENLNEMQCMWFQTECAQAYKAMNKFGEALKKCHEIERHFIEITDDQFDFHTYCMRKITLRSYVDLLKLEDVLRQHPFYFKAARIAIEIYLKLHDNPLTDENKEHEADTANMSDKELKKLRNKQRRAQKKAQIEEEKKNAEKEKQQRNQKKKKDDDDEEIGGPKEELIPEKLAKVETPLEEAIKFLTPLKNLVKNKIETHLFAFEIYFRKEKFLLMLQSVKRAFAIDSSHPWLHECMIRLFNTAVCESKDLSDTVRTVLKQEMNRLFGATNPKNFNETFLKRNSDSLPHRLSAAKMVYYLDPSSQKRAIELATTLDESLTNRNLQTCMEVLEALYDGSLGDCKEAAEIYRANCHKLFPYALAFMPPGYEEDMKITVNGDSSAEAEELANEI
B2 was tested, and the “percent of input pulled down” value (HA3-San) was > 10 % of input.

B3: San (endogenous) (natural protein)
chain: MKGSRIELGDVTPHNIKQLKRLNQVIFPVSYNDKFYKDVLEVGELAKLAYFNDIAVGAVCCRVDHSQNQKRLYIMTLGCLAPYRRLGIGTKMLNHVLNICEKDGTFDNIYLHVQISNESAIDFYRKFGFEIIETKKNYYKRIEPADAHVLQKNLKVPSGQNADVQKTDN
In the case of B3, the “percent of input pulled down” value (HA3-Ard1) is reported as < 10 % of input.
